Laboratory results reported in patent publication US20200079855A1 (Pfizer, published 2020).
Substitutions are numbered along the chain they refer to. Numbers in names are those of the source. Where “and” joins values, the source holds several entries; their conditions need not be identical. Equal values may be shown once.

Tests used:
[1] = molecular target: recombinant human αvβ8 integrin (human) (UniProt P06756); experiment: ELISA (DELFIA counts) on human αvβ8, Fab titration
[2] = molecular target: T1, human αvβ8 integrin on U251 cells (human, UniProt P06756 31-1048); experiment: flow cytometry, Fab binding to fixed U251 cells (ΔMFI, background subtracted); EC50 unit inferred, axis Log10 [FAB] nM
[3] = molecular target: T1, human αvβ8 integrin on U251 cells; experiment: flow cytometry, Fab binding to fixed U251 cells (MFI APC-A); EC50 unit inferred, axis Log10 [Ab] (nM)
[4] = molecular target: T1, human αvβ8 integrin on U251 cells; experiment: flow cytometry, Fab binding to fixed U251 cells (ΔMFI, background subtracted); EC50 unit inferred, axis Log10 [Ab] (nM)
[5] = molecular target: T2, recombinant human αvβ3 integrin (human, UniProt P06756 31-992; P05106 27-718); experiment: Biacore, recombinant human αvβ3 immobilised on the chip; concentration not shown
T2 construct: Used in ELISA and immobilised on the Biacore chip; construct not described; also called hαvβ3; AVB3
T2 sequence (P06756 31-992 limits assumed, chain 1 of 2): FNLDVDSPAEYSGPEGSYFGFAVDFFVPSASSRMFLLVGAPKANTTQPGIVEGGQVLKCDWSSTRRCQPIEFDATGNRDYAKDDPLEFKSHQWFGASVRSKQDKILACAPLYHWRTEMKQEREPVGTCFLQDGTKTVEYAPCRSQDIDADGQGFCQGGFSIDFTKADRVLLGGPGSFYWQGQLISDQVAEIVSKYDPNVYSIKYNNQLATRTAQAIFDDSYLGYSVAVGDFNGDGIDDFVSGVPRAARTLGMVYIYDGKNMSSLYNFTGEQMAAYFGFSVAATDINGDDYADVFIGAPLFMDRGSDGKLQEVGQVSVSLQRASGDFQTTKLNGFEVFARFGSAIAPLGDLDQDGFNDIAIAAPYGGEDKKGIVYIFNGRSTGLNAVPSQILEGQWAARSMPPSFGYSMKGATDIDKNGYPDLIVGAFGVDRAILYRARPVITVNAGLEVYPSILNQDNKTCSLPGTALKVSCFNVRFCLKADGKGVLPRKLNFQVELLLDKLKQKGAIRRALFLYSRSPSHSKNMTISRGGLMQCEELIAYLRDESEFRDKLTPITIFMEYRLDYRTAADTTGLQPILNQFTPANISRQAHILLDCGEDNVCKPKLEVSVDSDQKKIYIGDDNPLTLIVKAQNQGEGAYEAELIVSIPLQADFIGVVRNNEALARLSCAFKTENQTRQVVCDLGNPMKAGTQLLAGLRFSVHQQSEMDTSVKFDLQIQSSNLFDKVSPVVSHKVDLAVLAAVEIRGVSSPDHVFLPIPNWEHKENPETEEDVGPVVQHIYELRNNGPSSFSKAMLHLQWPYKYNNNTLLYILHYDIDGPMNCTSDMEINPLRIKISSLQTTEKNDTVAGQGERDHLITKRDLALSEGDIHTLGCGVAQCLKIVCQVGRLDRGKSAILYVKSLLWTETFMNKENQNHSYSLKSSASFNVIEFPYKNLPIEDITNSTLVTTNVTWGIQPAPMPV
T2 sequence (P05106 27-718 limits assumed, chain 2 of 2): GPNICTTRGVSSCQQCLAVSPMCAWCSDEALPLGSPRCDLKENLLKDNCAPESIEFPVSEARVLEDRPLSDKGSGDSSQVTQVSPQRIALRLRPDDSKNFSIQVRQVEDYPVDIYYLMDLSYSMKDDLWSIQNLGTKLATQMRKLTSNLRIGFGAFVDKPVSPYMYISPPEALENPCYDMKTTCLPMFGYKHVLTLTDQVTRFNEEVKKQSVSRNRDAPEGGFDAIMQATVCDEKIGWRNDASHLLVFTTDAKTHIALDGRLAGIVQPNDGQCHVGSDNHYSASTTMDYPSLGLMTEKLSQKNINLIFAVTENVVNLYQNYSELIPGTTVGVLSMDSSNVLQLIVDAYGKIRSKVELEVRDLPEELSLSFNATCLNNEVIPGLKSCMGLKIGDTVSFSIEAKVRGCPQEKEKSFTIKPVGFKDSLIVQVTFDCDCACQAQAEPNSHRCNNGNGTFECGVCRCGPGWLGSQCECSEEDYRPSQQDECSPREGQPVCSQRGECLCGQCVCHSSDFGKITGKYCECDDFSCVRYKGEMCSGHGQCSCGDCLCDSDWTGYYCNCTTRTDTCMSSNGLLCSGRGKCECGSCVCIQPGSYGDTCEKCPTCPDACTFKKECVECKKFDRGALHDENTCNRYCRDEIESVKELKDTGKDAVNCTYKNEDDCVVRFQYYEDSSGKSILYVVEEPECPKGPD
Procedure: (§1) To evaluate the specificity of ADWA11 2.4, recombinant human αvβ6 and αvβ3 were immobilized on a Biacore chip and binding of the parental murine and humanized mAb variant of ADWA11 2.4 was determined.

[6] = molecular target: T3, recombinant human αvβ6 integrin (human, UniProt P06756 31-992; P18564 22-707); experiment: Biacore, recombinant human αvβ6 immobilised on the chip; concentration not shown
T3 construct: Used in ELISA and immobilised on the Biacore chip; construct not described; also called hαvβ6; AVB6
T3 sequence (P06756 31-992 limits assumed, chain 1 of 2): as the sequence (P06756 31-992 limits assumed, chain 1 of 2) above
T3 sequence (P18564 22-707 limits assumed, chain 2 of 2): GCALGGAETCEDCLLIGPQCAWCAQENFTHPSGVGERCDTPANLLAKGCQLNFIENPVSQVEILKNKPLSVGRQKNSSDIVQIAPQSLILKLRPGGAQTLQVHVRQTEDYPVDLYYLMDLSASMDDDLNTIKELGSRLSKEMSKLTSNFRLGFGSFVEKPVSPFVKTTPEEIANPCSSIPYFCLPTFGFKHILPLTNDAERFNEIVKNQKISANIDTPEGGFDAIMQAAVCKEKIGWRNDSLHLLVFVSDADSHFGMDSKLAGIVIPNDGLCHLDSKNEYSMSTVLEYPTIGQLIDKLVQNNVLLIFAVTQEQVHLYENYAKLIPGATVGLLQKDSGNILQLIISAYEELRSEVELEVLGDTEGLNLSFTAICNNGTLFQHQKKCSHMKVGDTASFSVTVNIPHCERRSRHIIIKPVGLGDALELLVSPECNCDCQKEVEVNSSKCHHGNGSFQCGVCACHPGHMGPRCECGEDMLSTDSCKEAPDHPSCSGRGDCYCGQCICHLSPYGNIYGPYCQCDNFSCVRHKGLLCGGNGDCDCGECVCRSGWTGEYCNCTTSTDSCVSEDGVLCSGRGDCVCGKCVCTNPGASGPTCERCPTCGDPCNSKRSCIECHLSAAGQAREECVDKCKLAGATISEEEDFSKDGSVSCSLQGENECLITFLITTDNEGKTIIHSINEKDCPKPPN
Procedure: as §1

[7] = molecular target: T1, human αvβ8 integrin on U251 cells; experiment: flow cytometry, IgG binding to U251 cells (MFI PE-A), left panel ADWA11_IgG_U251 cell binding; EC50 unit inferred, axis Log10 [mAb] nM
[8] = molecular target: T4, mouse αvβ8 integrin on C8-S cells (mouse, UniProt P43406 31-1044; Q0VBD0 22-767); experiment: flow cytometry, IgG binding to C8-S cells (MFI PE-A), right panel ADWA11_IgG_C8-S cell binding; EC50 unit inferred, axis Log10 [mAb] nM
T4 construct: Endogenous αvβ8 of C8-S mouse astrocyte cells; also called C8-S (mouse astrocyte); C8-S (mouse avb8)
T4 sequence (P43406 31-1044 limits assumed, chain 1 of 2): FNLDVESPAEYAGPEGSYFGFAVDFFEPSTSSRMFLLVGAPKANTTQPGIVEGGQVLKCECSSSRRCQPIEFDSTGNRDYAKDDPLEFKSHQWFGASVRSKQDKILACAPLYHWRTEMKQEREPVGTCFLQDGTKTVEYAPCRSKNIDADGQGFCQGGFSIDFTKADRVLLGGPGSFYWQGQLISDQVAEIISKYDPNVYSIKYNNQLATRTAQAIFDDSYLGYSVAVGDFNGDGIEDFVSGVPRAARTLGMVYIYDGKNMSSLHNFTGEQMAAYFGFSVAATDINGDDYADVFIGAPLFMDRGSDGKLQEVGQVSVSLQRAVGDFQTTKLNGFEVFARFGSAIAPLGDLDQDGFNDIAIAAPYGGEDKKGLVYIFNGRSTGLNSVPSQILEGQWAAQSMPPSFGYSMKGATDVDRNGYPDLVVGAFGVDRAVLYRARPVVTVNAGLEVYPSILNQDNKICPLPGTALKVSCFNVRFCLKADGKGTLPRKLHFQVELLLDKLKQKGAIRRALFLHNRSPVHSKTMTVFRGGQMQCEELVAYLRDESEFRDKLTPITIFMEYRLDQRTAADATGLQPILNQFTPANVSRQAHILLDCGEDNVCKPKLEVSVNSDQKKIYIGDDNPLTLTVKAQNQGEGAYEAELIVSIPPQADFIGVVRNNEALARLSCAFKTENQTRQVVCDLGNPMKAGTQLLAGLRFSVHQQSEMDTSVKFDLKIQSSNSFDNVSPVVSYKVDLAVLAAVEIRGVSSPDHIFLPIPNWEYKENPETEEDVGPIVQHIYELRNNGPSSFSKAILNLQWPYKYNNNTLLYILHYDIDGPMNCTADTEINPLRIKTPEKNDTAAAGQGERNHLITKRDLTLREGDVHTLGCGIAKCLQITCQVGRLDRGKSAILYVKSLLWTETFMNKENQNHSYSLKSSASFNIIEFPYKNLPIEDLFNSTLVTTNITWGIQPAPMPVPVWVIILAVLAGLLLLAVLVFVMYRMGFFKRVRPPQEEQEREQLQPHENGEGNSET
T4 sequence (Q0VBD0 22-767 limits assumed, chain 2 of 2): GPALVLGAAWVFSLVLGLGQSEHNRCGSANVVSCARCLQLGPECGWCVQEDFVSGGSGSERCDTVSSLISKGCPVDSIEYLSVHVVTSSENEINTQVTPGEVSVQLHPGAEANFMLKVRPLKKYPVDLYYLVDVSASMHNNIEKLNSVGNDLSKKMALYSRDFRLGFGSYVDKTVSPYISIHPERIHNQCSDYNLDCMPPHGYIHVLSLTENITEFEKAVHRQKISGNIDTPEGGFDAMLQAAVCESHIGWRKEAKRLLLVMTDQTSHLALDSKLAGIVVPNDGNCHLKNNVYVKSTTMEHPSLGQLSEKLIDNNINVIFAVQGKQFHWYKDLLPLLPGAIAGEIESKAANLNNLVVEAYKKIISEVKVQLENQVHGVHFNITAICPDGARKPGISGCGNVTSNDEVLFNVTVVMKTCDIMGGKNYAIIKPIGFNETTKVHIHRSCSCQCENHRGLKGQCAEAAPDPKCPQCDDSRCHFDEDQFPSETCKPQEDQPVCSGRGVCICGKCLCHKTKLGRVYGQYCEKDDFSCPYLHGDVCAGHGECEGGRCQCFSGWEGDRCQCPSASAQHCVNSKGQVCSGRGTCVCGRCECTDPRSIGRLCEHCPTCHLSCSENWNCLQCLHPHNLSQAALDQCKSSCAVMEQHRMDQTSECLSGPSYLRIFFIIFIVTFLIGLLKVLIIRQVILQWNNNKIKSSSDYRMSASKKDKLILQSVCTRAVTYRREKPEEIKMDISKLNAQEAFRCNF
Procedure: 100,000 cells were incubated with a dilution series of the anti-αvβ8 or human IgG1_3 mut Isotype antibody for three to four hours on ice. The cells were spun down for five minutes at 300 g force. The cells were then washed three times with wash buffer (PBS+0.2% BSA) to remove excess unbound antibodies. After thorough washing, cells were incubated with Fab′2 anti-human Fc-PE (Invitrogen) or goat Fab′2 anti-mouse-APC (Jackson Labs) at 1:1000 dilution along with LIVE/DEAD fixable cell stain (Invitrogen) at 1:2000 to distinguish live cells. The whole content was incubated for 30 minutes on ice. After washing, the stained cells were analyzed on BD biosciences Fortessa flow cytometer (gated for live cells) using FlowJo analysis software. The mean fluorescence intensities (MFI) at different antibody concentrations were plotted for various antibodies.
The apparent-affinity of ADWA11 2.4 for U251 (human glioblastoma) or C8-S (mouse astrocyte) cells was also evaluated in a cell-binding assay, according to the methods as generally described herein. Briefly, cells were incubated with a serial dilution of ADWA11 2.4 for 4 hours on ice, followed by detection on bound antibody with an anti-human-PE secondary antibody, and analyzed by flow cytometry.

[9] = molecular target: recombinant human αvβ8 integrin (human) (UniProt P06756); experiment: SPR (Biacore), Fab affinity of Table 3
[10] = molecular target: T1, human αvβ8 integrin on U251 cells; experiment: cell-based or functional assay

Chain of recombinant human αvβ8 integrin (human) (P06756 31-992 limits assumed, form in doubt, chain 1 of 2): as the sequence (P06756 31-992 limits assumed, chain 1 of 2) above
Chain of recombinant human αvβ8 integrin (human) (chain, as listed by the source limits assumed, form in doubt, chain 2 of 2): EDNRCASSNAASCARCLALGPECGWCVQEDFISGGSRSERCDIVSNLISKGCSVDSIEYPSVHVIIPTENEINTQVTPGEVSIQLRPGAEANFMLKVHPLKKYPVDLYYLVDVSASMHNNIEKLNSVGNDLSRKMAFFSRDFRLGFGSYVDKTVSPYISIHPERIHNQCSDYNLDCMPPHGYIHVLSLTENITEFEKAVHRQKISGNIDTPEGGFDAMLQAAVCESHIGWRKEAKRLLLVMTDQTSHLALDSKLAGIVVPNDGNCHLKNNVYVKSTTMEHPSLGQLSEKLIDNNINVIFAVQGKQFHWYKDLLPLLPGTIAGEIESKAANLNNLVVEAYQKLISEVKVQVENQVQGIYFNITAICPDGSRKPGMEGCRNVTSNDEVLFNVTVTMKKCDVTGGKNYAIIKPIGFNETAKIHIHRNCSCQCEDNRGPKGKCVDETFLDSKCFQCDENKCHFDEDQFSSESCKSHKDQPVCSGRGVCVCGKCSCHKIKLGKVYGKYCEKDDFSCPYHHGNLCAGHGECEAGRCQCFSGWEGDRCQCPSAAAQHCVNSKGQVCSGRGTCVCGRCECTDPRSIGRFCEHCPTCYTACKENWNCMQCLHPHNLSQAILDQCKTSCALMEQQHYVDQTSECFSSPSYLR

B1: ADWA11 VH05/VK01 Fab with N57Q in VH (Fab, V domains shown)
VH: EVQLVESGGGLVQPGGSLRLSCAASGFNIKDYYMNWVRQAPGKGLEWVGWIDPDNGQTIYDPKFQGRFTISADTSKNSAYLQMNSLRAEDTAVYYCARRLLMDYWGQGTLVTVSS
VL: DIQMTQSPSSLSASVGDRVTITCRSTKSLLHFNGNTYLFWYQQKPGKAPKRLIYYMSNLASGVPSRFSGSGSGTDFTLTISSLQPEDFATYYCMQSLEYPFTFGQGTKVEIK
B1 gave an EC50 (read off the curve) [1] of 1 nM.

B2: ADWA11 VH05/VK01 Fab with D61E in VH (Fab, V domains shown)
VH: B1 VH with Q57N, D61E
VL: B1 VL
In the case of B2, the EC50 (read off the curve) [1] is reported as 1 nM.

B3: ADWA11 VH05/VK01 Fab with P62A in VH (Fab, V domains shown)
VH: B1 VH with Q57N, P62A
VL: B1 VL
Work on B3 yielded an EC50 (read off the curve) [1] of 1 nM.

B4: ADWA11 VH05/VK01 Fab with K63A in VH (Fab, V domains shown)
VH: B1 VH with Q57N, K63A
VL: B1 VL
Binder B4 has an EC50 (read off the curve) [1] of 1 nM.

B5: ADWA11 VH05-2/VK01 Fab with F64V in VH (Fab, V domains shown)
VH: B1 VH with N55Q, Q57N, D61E, F64V
VL: B1 VL
B5 showed an EC50 [2] of 0.588 nM.

B6: ADWA11 VH05-2/VK01 Fab with F101L in VL (Fab, V domains shown)
VH: B1 VH with N55Q, Q57N, D61E
VL: B1 VL with F101L
B6 gave an EC50 [2] of 1.56 nM.

B7: ADWA11 VH05-2/VK01 Fab with L30S in VL (Fab, V domains shown)
VH: B1 VH with N55Q, Q57N, D61E
VL: B1 VL with L30S
Binder B7 has an EC50 [2] of 0.544 nM.

B8: ADWA11 VH05-2/VK01 Fab with L97Y in VL (Fab, V domains shown)
VH: B1 VH with N55Q, Q57N, D61E
VL: B1 VL with L97Y
B8 gave an EC50 [2] of 0.544 nM.

B9: ADWA11 VH05-2/VK01 Fab with M94Q in VL (Fab, V domains shown)
VH: B1 VH with N55Q, Q57N, D61E
VL: B1 VL with M94Q
Work on B9 yielded an EC50 [2] of 0.641 nM.

B10: ADWA11 VH05-2/VK01 Fab (parental) (Fab, V domains shown)
VH: B1 VH with N55Q, Q57N, D61E
VL: B1 VL
B10 gave an EC50 [3] of 0.198 nM, an EC50 [2] of 0.613 nM and an EC50 [4] of 0.224 nM.

B11: ADWA11 VH05-2/VK01 Fab with Q105G in VL (Fab, V domains shown)
VH: B1 VH with N55Q, Q57N, D61E
VL: B1 VL with Q105G
B11 showed an EC50 [2] of 0.486 nM.

B12: ADWA11 VH05-2/VK01 Fab with M56A in VL (Fab, V domains shown)
VH: B1 VH with N55Q, Q57N, D61E
VL: B1 VL with M56A
B12 showed an EC50 [4] of 0.205 nM.

B13: ADWA11 VH05-2/VK01 Fab with N58S in VL (Fab, V domains shown)
VH: B1 VH with N55Q, Q57N, D61E
VL: B1 VL with N58S
For B13, the EC50 [4] was 0.229 nM.

B14: ADWA11 2.1 Fab (Fab, V domains shown)
VH: B1 VH with N55Q, Q57N, D61E
VL: B1 VL with L30S, M94Q, Q105G
For B14, the EC50 [3] was 0.218 nM.

B15: ADWA11 2.2 Fab (Fab, V domains shown)
VH: B1 VH with N55Q, Q57N, D61E
VL: B1 VL with L30S, L97Y, Q105G
For B15, the EC50 [3] was 0.225 nM.

B16: ADWA11 2.3 Fab (Fab, V domains shown)
VH: B1 VH with N55Q, Q57N, D61E
VL: B1 VL with L30S, M56A, M94Q, Q105G
Work on B16 yielded an EC50 [3] of 0.452 nM.

B17: ADWA11 2.1 (F64V) Fab (Fab, V domains shown)
VH: B1 VH with N55Q, Q57N, D61E, F64V
VL: B1 VL with L30S, M94Q, Q105G
Binder B17 has an EC50 [3] of 0.225 nM.

B18: ADWA11 2.3 (F64V) Fab (Fab, V domains shown)
VH: B1 VH with N55Q, Q57N, D61E, F64V
VL: B1 VL with L30S, M56A, M94Q, Q105G
B18 showed an EC50 [3] of 0.28 nM.

B19: ADWA11 2.4 (F64V) Fab (Fab, V domains shown)
VH: B1 VH with N55Q, Q57N, D61E, F64V
VL: B1 VL with L30S, N58S, M94Q, Q105G
Work on B19 yielded an EC50 [3] of 0.211 nM.

B20: ADWA11 VH05/VK01 Fab with K30A in VH (Fab, V domains shown)
VH: B1 VH with K30A, Q57N
VL: B1 VL
B20 was tested, and the EC50 (read off the curve) [1] was 1 nM.

B21: ADWA11 VH05-2/VK01 IgG (antibody, V domains shown)
VH: B1 VH with N55Q, Q57N, D61E
VL: B1 VL
notes: also called ADWA11 5-2_1; VH05/VK01-N55Q-D61E
In the case of B21, the binding result [5] is reported as “no binding”, the binding result [6] is reported as “no binding” and the EC50 [7] is reported as 0.0711 nM. For the same binder, the EC50 [8] was 0.0591 nM.

B22: ADWA11 VH05-1/VK01 IgG (antibody, V domains shown)
VH: B1 VH with Q57N, D61E
VL: B1 VL
notes: VH05 with D61E; also called ADWA11 5-1_1; VH05/VK01-D61E
B22: no binding [5]; no binding [6].

B23: ADWA11 VH05-2/VK01(2.1) antibody (antibody, V domains shown)
VH: B1 VH with N55Q, Q57N, D61E
VL: B1 VL with L30S, M94Q, Q105G
notes: also called ADWA11 2.1
Binder B23 has an EC50 [7] of 0.1 nM and an EC50 [8] of 0.106 nM.

B24: ADWA11 VH05/VK01 Fab with N55Q in VH (Fab, V domains shown)
VH: B1 VH with N55Q, Q57N
VL: B1 VL
B24 showed an EC50 (read off the curve) [1] of 1 nM.

B25: ADWA11 VH02/VK01 Fab (Fab, V domains shown)
VH: B1 VH with G49A, Q57N, T74N, S75A, A79L
VL: B1 VL
B25 was tested, and the Kd [9] was 1.89 nM.

B26: ADWA11 VH03/VK01 Fab (Fab, V domains shown)
VH: B1 VH with Q57N, T74N, S75A
VL: B1 VL
For B26, the Kd [9] was 0.0735 nM and < 0.1 nM and the fold lower KD than the mouse hybridoma antibody ADWA-11 [9] was over 5 fold.

B27: ADWA11 VH03/VK02 Fab (Fab, V domains shown)
VH: B1 VH with Q57N, T74N, S75A
VL: B1 VL with Y41F
For B27, the Kd [9] was 0.373 nM and 0.37 nM.

B28: ADWA11 VH01/VK01 Fab (Fab, V domains shown)
VH: B1 VH with G49A, Q57N, A72R, T74N, S75A, A79L
VL: B1 VL
Work on B28 yielded a Kd [9] of 6.86 nM.

B29: ADWA11 VH01/VK01 IgG (antibody, V domains shown)
VH: B1 VH with G49A, Q57N, A72R, T74N, S75A, A79L
VL: B1 VL
In the case of B29, the “IgG Potency TGFB Assay IC50 (pM)” value [10] is reported as 8470 pM.

B30: ADWA11 VH02/VK01 IgG (antibody, V domains shown)
VH: B1 VH with G49A, Q57N, T74N, S75A, A79L
VL: B1 VL
For B30, the “IgG Potency TGFB Assay IC50 (pM)” value [10] was 1760 pM.

B31: ADWA11 VH03/VK01 IgG (antibody, V domains shown)
VH: B1 VH with Q57N, T74N, S75A
VL: B1 VL
For B31, the “IgG Potency TGFB Assay IC50 (pM)” value [10] was 138 pM.

B32: ADWA11 VH03/VK02 IgG (antibody, V domains shown)
VH: B1 VH with Q57N, T74N, S75A
VL: B1 VL with Y41F
B32 was tested, and the “IgG Potency TGFB Assay IC50 (pM)” value [10] was 223 pM.
